# Assay results: the DeepSol protein solubility set
# Assay: soluble on expression in E. coli; label from the status in PepcDB or PDB records
row,Sequence,soluble on expression in E. coli
1,DPEDPAEDIIQTAGTIAHRGADRQDGGWGSGGPKFPQNGRLHALLRAYADGGQEDYLNVVEETLDVMADRGLYDHVGGGFHRYATDQQWAVPHFEKMLYDNAEIPRAFLAGYQAIGSERYASVVRETFEFVQRELQHPDGGFFSTLDAESAPHSESRSDSEQSSGESPRDDPDGETEEGLFYVWTPEQVHDAVDDETDADIFCDYYGVTEQGNFEGATVLAVRKPVPVLAEEYERSEDEITASLQRALNETFEARKDRPRPARDEKVLAGWNGLMIRALAEGAIVLDDQYADVAADALSFVREHLWDADAGRLNRRYKDDDVAIDGYLEDYAFLGRGALTLFEATGDVEHLAFAMDLGQAITEAFWDDEQGTLFFTPTGGESLVARPQELTD,not soluble
2,MKRGIIIIEDKKVSVTGNEVWMTATEIAGLFRAGVPAVNAAIKAVRKSDVLNDYEVCRYMRLENGLHADVYALEIIIPIAFRLNTYCTHVFRRWLVEKALAKEKQQAYVMLIHKANGYC,not soluble
3,MLRSLLKSRQVICGLRELRALSTSQGNESIIDFVDTVTETSEAQNQSFASLLRNSKFMQLGDFNGRLVVGKIAQRVQEDVYIDFGLKFNAVCKVPALNSEAYRSGARVLIRLIDPELSERFLGSKHDLTLLEADAVLVRLLSNVPRQQQQRQKPRGATEEEAPAAPETPAAH,not soluble
4,RIGVIGTGAIGGFYGLMLAHAGHDVHFLLRSEFEAVNRAGLSLNSAVHGFRRLAPVQAYHSAQDMPPCDWLLVGAKTTGNDELAPLIRAAAAPGAKVLLLQNGLGVEERLRPLLPESLHLLGGLCFICVHRGEPGVIEHQAYGGVNLGYHSGPADERRRREIVEEGAALFRESGLESTAMPDLEQARWQKLVWNIPYNGLSVLLKSSTAPLMANADSRSLIEAIMEEVIGAAGACGFILPEGYADQLLAATERMPDYRPSMYHDFAHGRPLELAAIYAAPLARAAA,not soluble
5,MGHHHHHHSHMVPGSEGPARAGSVVADVVFVIEGTANLGPYFEGLRKHYLLPAIEYFNGGPPAETDFGGDYGGTQYSLVVFNTVDCAPESYVQCHAPTSSAYEFVTWLDGIKFMGGGGESCSLIAEGLSTALQLFDDFKKMREQIGQTHRVCLLICNSPPYLLPAVESTTYSGCTTENLVQQIGERGIHFSIVSPRKLPAL,not soluble
6,MSLKTSHLKEVPETLAMRESLRDRCAQVAAKLDRSHPMTKDEMEQISRRMLEEADLPESYLGWVMVMISSEFWADALASVPPERRLFLLPHCLKHAEGCPAEYDQFGMNCKECGACSIADFRSIAEDMGYRVLVAEGSPVVMKIIVGGYVDAVVGVACLNVLEKAIDKVLLAGIPCMAVPLLSSDCRNTKVDEPWVEQMIRTPYKPAAAKTKSYVHLMRAAGLLFEDTLFERLAEGHHHHHH,not soluble
7,MTVFANRLLGPKGWLLNARVTIDGLFIASVEPDSAPLPGDVRVDTLLPAPGNLHSHSFQRAMAGMTEYRSRGRESFWTWRELMYRFLDRLTPEHVAAIAAQTFVEMQKAGYAAVGEFHYLHHRPGGGHYDDRAEMSARIVQAAAETGIGLTLLPVLYTHGGADGRALAGGQLRFGNDLDAYCTLVEGARAHTRTLAADARVGIAPHSLRAVSATDLAEVAARHPDGPVHIHIAEQTREVEEIEAAYGARPVDWLLNNAAVGPRWCLIHATHMSDAETRAMASTGAVAGLCPITEANLGDGIFNGVPYLEAGGAFGVGSDSNVLISLTEELRLLEYSQRLRDRERNVLAGAEGSTGAALYLGALRGGARALDRRAGEIAPGALADLVAIDSNAPALCALEPEQLLDGLIFAAGERVVSDLWSAGRHQVRAGRHVAEESIARRYGAALRDLLARV,not soluble
8,MQEGYREYRDIHARLNLPLLETGALVAAWSDEDLARLPAIVEQAHGNGVDDVRQVGRDEVLALEPQLAGNVLGAVRVPGEHLVDPWSAPLAYLQQALAHGAEACFDVEVLDGAFDGGEWLLHTRRGDLRASQVINCAGLFGDQLEQRLLGAASFAIHPRKGQFVVFDKAAAALLRHILLPVPNERTKGVVFTRTVFGNLLAGPTAEEQDDREQARVDSDTLQRLIDAAVERIPGLRGMPVTATYAGLRPASEKKEYRIRQVDGRNWISVGGIRSTGLTAALGIARHVYRLYQGERFHEAVREPLWPQVPNLAEHLPRDWQRPGYDEIVCHCEMVTRREILAALEGPLPAGDFGGLKRRTRACMGRCQGFYCNARVAELSAGRLAQPLATGSCHEHH,not soluble
9,MRNTKIRAVQYGCGKMSKVILNYLVDHGVEIVGAIDKNPAVVGQDIGDFAGFGHKTGIIISDKADQVFDNCDADIAIVTIFSYMPEMYEFYEMAIKHGVNVISTCEEAIYPWTTSPSETNRLDKLAKENHVTIMGSGMQDIYWINMPCLAMAGMNKIKKVRGVVSYNVEDYGLALAEAHGAGYDLERFERDIASAESLPSYMWNAAEAICSKMNWTIQSINQKSVPYILDEDVYSETLGRTIPAGQVTGMSAVTKVQTHQGIDLEVECIGKVYRQDDGDMCDWEITGEPDLIFSVNKPDTVALTCGTIVNRIPTVLDAPAGYITSEKARLITYPSYPLHTYVEK,not soluble
10,MAVNLLKKNSLALVASLLLAGHVQATELLNSSYDVSRELFAALNPPFEQQWAKDNGGDKLTIKQSHAGSSKQALAILQGLKADVVTYNQVTDVQILHDKGKLIPADWQSRLPNNSSPFYSTMGFLVRKGNPKNIHDWNDLVRSDVKLIFPNPKTSGNARYTYLAAWGAADKADGGDKGKTEQFMTQFLKNVEVFDTGGRGATTTFAERGLGDVLISFESEVNNIRKQYEAQGFEVVIPKTNILAEFPVAWVDKNVQANGTEKAAKAYLNWLYSPQAQTIITDYYYRVNNPEVMDKLKDKFPQTELFRVEDKFGSWPEVMKTHFTSGGELDKLLAAGRN,soluble
11,MAGDPMSGSKTSAEKKESETEKSSDIAQVKIKDVSYTLPSKYDKSTSDDQLVLKVNVAVKNTGKDPLNVDSMDFTLYQGDTKMSDTDPEDYSEKLQGSTINADKSVEGNLFFVVDKGKQYELNYTPESYGDKKPKSVTFKIDGKDKKILATADKLQDSAKALSAYVDVLLFGKDNADFEKITGANKNEIVNDFNESAKDGYLSASGLSSTYADSKALDNIVNGIKEGLSKNSSIQAKTTSISKDEAIVEATVKPVDASSLSDRIEDKVKDYYSKNSSASYEEAVKYALQVYPEEFKKLGPASSEKTVEVKMKKNDIDQWQLDMDDYRAAELVEAFIKELEHHHHHH,soluble
12,MGSDKIHHHHHHMRNPKPQEWKTEDYSQKKIADYKAFNFVDGEGVRNSLYVSGCLFACEGCFNKAVQNFNYGTPFTESLMNQIIEDLSHDYVQGLTLLGGEPFLNTDVCLSVVKRVRETFGSAKDIWSWSGYTFEELLLETPDKLELLHSIDILVDGRFELAKRNLNLQFRGSSNQRIIDVPKSLAAGKAVIWEKCHDAETSYEQIKKSI,not soluble
13,ANGLITKIWGTAGWTFNHAVTFGYPLNPTSDDKRRYKNYFISLGDVLPCRLCRESYKKFITTGKTALTNEVLRNRHTLTKWFYDVHNAVNNKLEVDYGLSYEDVVNKYESFRAK,soluble
14,SNAKVTVGKSAPYFSLPNEKGEKLSRSAERFRNRYLLLNFWASWCDPQPEANAELKRLNKEYKKNKNFAMLGISLDIDREAWETAIKKDTLSWDQVCDFTGLSSETAKQYAILTLPTNILLSPTGKILARDIQGEALTGKLKELLKTE,soluble
15,MGSDKIHHHHHHMPGSHNITKQTGASKMSSTRGAFFPDALMQQVKARFHHVDHDLDGRARLFFDNAGGSFRLKAAVDAYARIDALPDCPERIHERALDLQAIQSRGEDDVRTILNAQGGTVYASLTASGAMFDMVRAIMENVPGTNAVTTVLEHPSSYDAMTYYAERTGKTLRIAPSNPETGGVDVDAIVSLIDADTALLSVMFASNISGAKFDIEAIVARARQKKPGLFIVVDAVQHAPHGIIDLQRTPVDGINFAPYKFFGCRGSGISWLSPRAAALPHHRLAAKESGVWELGSPAPAQFAVVTSIVDYVKWIGRYFVDSDDRRTLFVEGMHRIELHERALLAALLDGCGGRRGLRSIDGVEVYWDHDDLTKRDLIVGIGFAHLEPTQAVREYEKHGVIVYERVASSLYSGRMLKSFRLAGAVRISPLHCHAPDDIARFLAITGTLAANR,not soluble
16,MAHHHHHHMSAWASGDTLERLKLKPETAPSNRGNGRQASADATSSTSVKATSNADAEGVVQASMAATIASTNKNKNKKALEGKVSKKNAPKNTAHTADEKQPPTQEQTASSSGGAKRNEPKKGASDSRDCPVTLPSDVAELVVNAFTFIGTVQALRAGTSTDGRESMLSAAVRAPEFVPQRRDYAVQNATSGSDTQHVGELASNAYPMHHHHHHHHYQLHQQQKQPQHTPLVSTSRVQQQEQPPWAPYYNDQQHRQHHSVHHHRHQQQQQQLAYGQPDCTTGKMYHDAYSPVDYDMNLCAAPPYSRMYSGYPGMCMGANMLPNMSGYGGLALRRPLPYFPQQQNQVTAYKSTHVGQQQPWMRNDSGPSNARKGSGAGQWYPGGQAGFNDALSVWNQQRNAGNWARQAEQSGPAGAHTSSAP,not soluble
17,MDDDPHFDQNVQTVIAKTEAYITESVKAGGTGRALRDAHAKGYGLVRGEVEILDGLPPEYAQGIYATPGTHDALIRFSNGSPHAGADARLGAATGLALKIFDIPGPTLLEDEPDTGTFDYANINGPIFFCNTVEHYLFIQELFLNAPAYFSQGRPGAHRFFTDFVTGKGTLDQDDWAWDEFLAFLRLSKTPPANLLLSSYWTMGAVRHGDYIAKVRITPDPSFAAAVVRRDIDPTSAQEVFRPALEAELQERPYAFDIQVQLCTDLERMPVEDTTVEWPEQLSPSVTVAKLRLPRQDISGPENLEKMDSLSFTPWRVTAEHAPLGNIMRSRKEVYRQSSMERHKLEHHHHHH,not soluble
18,MGSDKIHHHHHHMKLNFTGHTDPGLIRSNNQDDYYIDPEGRFFIVADGMGGHAGGEEASRIATREIKAYLTANWDVSKPSSELLEQALWQANEAILQDQQNHPERADMGTTAVVVIFRNDEQWCAHVGDSRLYRLRETQLEQVTEDHTWVARAIKIGDITAEEARVHPFRHVLSRCLGREDLHQVDVQPLDTKIGDRLLLCSDGLTEELPDQKIAHNLQINSLLDQSALSLVEDAKEQGGHDNITVVIVALE,not soluble
19,MLIALTGTPGTGKSSVAERLRERGYKVATVVELAEKHGCIIDEEDGEIVIDVESLAARIDFEGIVEGHLSHLLKPDVAIVLRCNPAVLRERLKGRNWSEEKLLENLEAEMLDVILVEALEHASEVYEIDTTEMSLEEVIEAVEAIIRGDREARKRYKPGGIDWLSELEDRIEEFMRKVLEHHHHHH,soluble
20,GSHADLLRKNAEVTKQVSMARQAQVDLEREKKELEDSLERISDQGQRKTQEQLEVLESLKQELATSQRELQVLQGSLETSAQSEANWAAEFAELEKERDSLVSGAAH,soluble
21,MGSDKIHHHHHHMLAYGYQKFGGPTVFEELPQSQLIPTDNQLLIKTLAVNLTEEDRLERLGTIQSVALPHIPGHDVIGKIIQVGAAVTDLDVGTVVAARTNHTYADQVCLDSDLAVTMPTNLDPVTAVSLVTPGIVAYKTVRYFADIQADQTVIVKGAGSPVGLLIIQLAKRLGAHVIAIASDRYANLIATLGVDQFVDYQHQNPVHVLADRGDVVINVAIDGVGGKDDLAMAKFDATIASFARHLPATSKSIRFQAIQPTEVISDQAALQLLFKLLDTGQLTTTINEQLPFNLTGFIQGHQRLDEPHVGQVVVAR,not soluble
